Laboratory results published in the supplement of paper PMC7125110.
± gives the standard error. For part of these data: Fewer inactive variants are shown than the library holds.

B1: glmS ribozyme (parent)
chain: AUAAAAGCGCCAGAACUACAGAAAUGUAGUUGACGAGGAGGAGGUUUAUCGAAUUUUCGGCGGAUGCCUCCAAA

Experiments:
Details in all cases: with glucosamine-6-phosphate
glucosamine-6-phosphate [1] = variants of: B1; test: kcat; higher = faster cleavage; RNA array
Method in brief: (§1)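 Barcoded glmS ribozyme variants on sequenced MiSeq chips were transcribed in situ by E. coli RNA polymerase and tracked through a hybridised Cy3 probe at 37 °C. Glucosamine-6-phosphate (40 μM to 10 mM) in HEPES/KCl/Mg(OAc)2 buffer was flowed in, and tiles were imaged over ~14 h. Signals were normalised to baseline and to non-cleaving reference variants; per-tile medians were fit to one- or two-exponential decays to give kobs. kcat and KM came from weighted Michaelis–Menten fits across concentrations.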

glucosamine-6-phosphate [2] = variants of: B1; test: KM; higher = weaker cofactor use; RNA array
Method in brief: as §1

glucosamine-6-phosphate [3] = variants of: B1; test: self-cleavage kobs at 640 uM GlcN6P; higher = faster cleavage; RNA array
Method in brief: as §1

glucosamine-6-phosphate [4] = variants of: B1; test: self-cleavage kobs at 2500 uM GlcN6P; higher = faster cleavage; RNA array
Method in brief: as §1

glucosamine-6-phosphate [5] = variants of: B1; test: self-cleavage kobs at 10000 uM GlcN6P; higher = faster cleavage; RNA array
Method in brief: as §1

glucosamine-6-phosphate [6] = variants of: B1; test: self-cleavage kobs at 40 uM GlcN6P; higher = faster cleavage; RNA array
Method in brief: as §1

glucosamine-6-phosphate [7] = variants of: B1; test: self-cleavage kobs at 160 uM GlcN6P; higher = faster cleavage; RNA array
Method in brief: as §1

Row | Variant | kcat (glucosamine-6-phosphate [1]) [s⁻¹] | KM (glucosamine-6-phosphate [2]) [µM] | self-cleavage kobs at 640 uM GlcN6P (glucosamine-6-phosphate [3]) [s⁻¹] | self-cleavage kobs at 2500 uM GlcN6P (glucosamine-6-phosphate [4]) [s⁻¹] | self-cleavage kobs at 10000 uM GlcN6P (glucosamine-6-phosphate [5]) [s⁻¹] | self-cleavage kobs at 40 uM GlcN6P (glucosamine-6-phosphate [6]) [s⁻¹] | self-cleavage kobs at 160 uM GlcN6P (glucosamine-6-phosphate [7]) [s⁻¹]
1 | A53U C58G | 9.99e-05 ± 7.2e-06 | 1390 ± 370 | 2.6e-05 ± 9.5e-06 | 7.16e-05 ± 1e-05 | 8.57e-05 ± 8e-06 | – | –
2 | A36U A52G | 1.01e-05 ± 3e-06 | – | – | – | < 1e-05 | < 1e-05 | –
3 | A36U C50G U69G | 0.000296 ± 5.6e-05 | – | 0.00036 ± 0.00012 | 0.000275 ± 0.00013 | 0.000368 ± 8.1e-05 | 0.000397 ± 0.00012 | 0.000219 ± 6e-05
4 | G51U C68G | 4.24e-05 ± 1.1e-05 | – | 5.2e-05 ± 9.7e-06 | 4.27e-05 ± 1e-05 | – | – | –
5 | C11A C70A | 2.97e-05 ± 1.1e-05 | – | 4.96e-05 ± 1.9e-05 | – | – | – | –
6 | C58U A64G | 0.00011 ± 1.9e-05 | – | – | 5.74e-05 ± 1.1e-05 | 8.51e-05 ± 1.1e-05 | – | –
7 | G32A G60A | < 1e-05 | – | < 1e-05 | – | – | < 1e-05 | < 1e-05
8 | A39U C71G | 0.00162 ± 0.00048 | 3300 ± 1600 | 0.00022 ± 2.8e-05 | 0.00066 ± 9.6e-05 | 0.00126 ± 0.00011 | 4.48e-05 ± 8.3e-06 | 0.000107 ± 2e-05
9 | A15G G29U | 0.00177 ± 0.00076 | – | 0.000265 ± 0.0001 | 0.00118 ± 0.00039 | 0.00145 ± 0.00039 | 6.06e-05 ± 1.7e-05 | 0.000104 ± 4.4e-05
